Reference: the supplement of paper PMC12764529
± gives the half width of the 95% confidence interval.

Experiments:
[1] = folding stability dG unfold from trypsin proteolysis; higher = more stable
Procedure, shortened: (§1)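 How resistant each design was to proteolysis was captured as K50, inferred by Bayesian fitting of sequencing counts. Unfolding free energy was then derived relative to a sequence-predicted unfolded-state K50 and a shared folded-state K50, per protease or combined. Digestion used trypsin and chymotrypsin at 11 threefold-diluted concentrations plus a no-protease condition, on mini-proteins under 80 residues without cysteine in a PA-tagged cDNA display construct. Designs were kept only when AlphaFold2 dimer inter-PAE was above 15.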

[2] = folding stability dG unfold from chymotrypsin proteolysis; higher = more stable
Procedure, shortened: as §1

[3] = folding stability dG unfold (combined trypsin and chymotrypsin); higher = more stable
Procedure, shortened: as §1

Row | Sequence | folding stability dG unfold [1] | folding stability dG unfold [2] | folding stability dG unfold [3]
1 | SAGGSAKRVITIGNDEDQERVQEEAEDNGVKKRPIPGDWDDFLSNLQDNFPEIDRIVIPNGREFEISAGGSA [r15_712_TrROS] | -0.659 ± 0.32 kcal/mol | -1.27 ± 0.32 kcal/mol | -0.953 ± 0.44 kcal/mol
2 | SAGGSDDPAKDIDLDIPVVVLEEEEARELARELDKPIIFRLPDGRLRVFYPDGREEEFPLPKPEELSAGGSA [r2_34_TrMRF] | 3.38 ± 0.066 kcal/mol | 2.65 ± 0.022 kcal/mol | 2.96 ± 0.039 kcal/mol
3 | SGYVVRIYRPNEKGEPVKIVLPDEEAEELYKELVDEEMSVEEFAERLKKLFPDAKVEVRKAEDIPPEELLSA [r9_1085_TrMRF] | 2.13 ± 0.07 kcal/mol | 1.85 ± 0.023 kcal/mol | 2 ± 0.058 kcal/mol
4 | SAGKSVKLSISVNPDNNSITITLEVEFKPDEKINIPAKFYLKDKEFNANYSVTKTPDGKAIATFTIELDSAG [r5_596_TrMRF] | 2.67 ± 0.27 kcal/mol | 4.57 ± 0.23 kcal/mol | 3.63 ± 0.38 kcal/mol
5 | SAGGSAGGMLRIKTKDGKEIEITDDEVRIRFADGKKTVTVPAEKLKEALEAAEKAGMEIVEIEPSAGGSAGG [r6_337_TrROS_Hall] | 0.00945 ± 0.21 kcal/mol | 1.9 ± 0.057 kcal/mol | 1.44 ± 0.16 kcal/mol
6 | SAGGSAGGSMPPNFRVMIHDDDGEERTFHMSPEDLKEFADNLPDVKVEPHPPGMMHITVRVPKSAGGSAGGS [r20_231_TrROS] | -0.72 ± 0.19 kcal/mol | 0.454 ± 0.085 kcal/mol | 0.101 ± 0.092 kcal/mol
7 | SAGGSAGGSAGKKIKVRIKVKDPETNEYYEIEIEAETEEEALEALKKLFPNVKKVEIVPASAGGSAGGSAGG [r11_25_TrROS_Hall] | 3.26 ± 0.11 kcal/mol | 2.69 ± 0.11 kcal/mol | 3.18 ± 0.15 kcal/mol
8 | SAGGYEKKTIRIEATPEELENLLKELREKYPDLKVEVKVVKVEKKENDPNVSPKDKKVYLEITVVKPKPSAG [r5_437_TrROS_Hall] | 1.39 ± 0.12 kcal/mol | 1.89 ± 0.13 kcal/mol | 1.88 ± 0.17 kcal/mol
9 | SLPNRPLVPFELELRLPRFEVRVRLYRLPDGSYLLVAEIRFPNGLTARAEFVLDPVTGRIYLVRVEVRPESA [r9_795_TrMRF] | 3.82 ± 0.041 kcal/mol | 4.56 ± 0.05 kcal/mol | 4.29 ± 0.05 kcal/mol
10 | SAGGSAGGSAMTLKEKAEAIEKEKGVKITVTVTYPDGTVRTLTPEELSSIPPGPYTLSFTTPSAGGSAGGSA [r18_394_JUSTAS] | 1.73 ± 0.023 kcal/mol | 1.44 ± 0.16 kcal/mol | 1.67 ± 0.099 kcal/mol
11 | SAGGVVTVTVDPNSDKVTAYTTRTVTVYFNELGIWKEEEVTDVVTMSQEELEKLKEESGLPMVIVGASAGGS [r8_337_JUSTAS] | 0.216 ± 0.061 kcal/mol | -0.0773 ± 0.19 kcal/mol | 0.238 ± 0.094 kcal/mol
12 | SAGGKTYTIVLPIPPNVPLEEYIKKIEKLLKKLKKNVPISFNKQKKLPNGYYLINFTLTDNKVTGFGSAGGS [r8_7_TrMRF] | 1.06 ± 0.059 kcal/mol | 1.91 ± 0.12 kcal/mol | 1.72 ± 0.18 kcal/mol
13 | SAGGSAKSLTLTVEITLPDGSTVRIEAEIEEKDGYLVIKVTIYNEDGEKVAEFTLVLKLPPPPPEPSAGGSA [r15_263_TrROS_Hall] | 2.84 ± 0.47 kcal/mol | 4.42 ± 0.2 kcal/mol | 3.76 ± 0.66 kcal/mol
14 | SPPITIEIEYERNPDNGMFPLKVKAWNPDGEPIGEREIPFKGSPEEMRERAMKEAKELADKNGWPIEIEWSA [r9_31_TrROS] | -0.436 ± 0.17 kcal/mol | 0.637 ± 0.18 kcal/mol | 0.331 ± 0.19 kcal/mol
15 | SSEKVELAKKYLKEKGIPIKEFKEITPTGITILAPNGKWITISVKPGDLNEITINPKKSSDGGYENDIPYSA [r9_809_JUSTAS] | 0.215 ± 0.049 kcal/mol | 0.92 ± 0.09 kcal/mol | 0.669 ± 0.088 kcal/mol
16 | SAGMATTTELPNGFLTTYEDGTTSFIPAEPPEVPVTTVPVTSPEEAAAAVAAAGLSVEVVTADSVTAPASAG [r5_328_JUSTAS] | 2.06 ± 0.091 kcal/mol | 1.2 ± 0.027 kcal/mol | 1.63 ± 0.07 kcal/mol
17 | SKKKKKLTAEEIAKKLEEKLKEEFGIEEIKITKIEFDKETKEITITMEITYKKKKNEKITITKKIKVEDLSA [r9_1002_TrROS_Hall] | 2.08 ± 0.24 kcal/mol | 2.5 ± 0.12 kcal/mol | 2.28 ± 0.63 kcal/mol
18 | SAGGSAGGSAGSKKAVIGGDGATVTYYPPLGYALVTFPDGTAALVDLKTGEIVEIAKTNDSAGGSAGGSAGG [r11_149_TrMRF] | 1.04 ± 0.059 kcal/mol | 2.29 ± 0.037 kcal/mol | 2 ± 0.11 kcal/mol
19 | SAGGMSPVKVAEKTYVIPLPSSMTKEEAKEEVKKELVPKGIDKIDIPISEDPNKGTLIIKVTVYKYPNESAG [r5_924_JUSTAS] | 0.297 ± 0.2 kcal/mol | 0.757 ± 0.27 kcal/mol | 0.49 ± 0.35 kcal/mol
20 | SAGGSAGGSASSTLRTVRFPPDTPLEEVKEALAAEFPDRDPNIKILEVRPEDGGLVVTVEVVSAGGSAGGSA [r18_360_JUSTAS] | 1.51 ± 0.033 kcal/mol | 1.58 ± 0.031 kcal/mol | 1.62 ± 0.057 kcal/mol
21 | SAGGSAGGPIKIKAKIFDPNGQPQEHEGEIDNPNGEPYKIKIDIFVLPDPDDEPNLVINVEIEPSAGGSAGG [r6_335_TrROS] | 1.38 ± 0.11 kcal/mol | 3.33 ± 0.17 kcal/mol | 2.77 ± 0.13 kcal/mol
